Test results taken from patent KR20230163144A.

B1: WM-A1-3128 (antibody, V domains shown)
VH: QVQLVESGGGVVQPGKSLRLSCAASGFSLRTYGMHWVRQAPGKGLEWVANIWHDGSHTFYADSVQGRFTVSRDNSANLLFLQMNSLRAEDTAVYYCARGGSYSRYSDAFDIWGQGTVITVSS
VL: DIQMTQSPGTLSLSPGERATLSCRASQSVSSSYLAWYQQKPGQAPRLLIYDASNRATGIPARFSGTGSGTDFTLTISSLEPEDFAVYYCQQRSNWPLTFGGGTKVEIK
B2: WM-A1-3133 (antibody, V domains shown)
VH: QMQLVQSGGKLVQPGSSLRLSCAASGFSFDDYGMSWVRQAPGKGLEWVSAISGSGGSTYYADSVKGRFTISRDNSKNTLYLQMNSLRAEDTAVYYCARGGRVYGMDVWGQGTTVTVSS
VL: DIQMTQSPSSVSASVGDTVTITCRASHDIRRWLAWYQQKPGEVPKVLIYAAAVLHSGVPSRFSGSGSGTDFSLTITNLQPEDVATYYCQKYDSVPFTFGGGTKLEIK
B3: WM-A1-3105 (antibody, V domains shown)
VH: QMQLVQSGAEVKRPGSSVKVSCKASGRSTYNYAFYWVRQAPGHGLEWMGGIIPIFGATNYAQKFQGRVTITADESTNTAYMEVTNLRSEDTAVYYCAKGSGNYYYGMDVWGQGTTVTVSS
VL: DIQMTQSPSSVSASVGDRVTITCRASQSVGTWLAWYQQKPGRAPKLLISAASSLHPGVPSRFSGSGSGTDFTLTISSLQPEDFATYYCQQADSFPYTFGQGTKLEIK
B4: WM-A1-2613 (antibody, V domains shown)
VH: QVQLQESGPGLVKPSGTLSLTCAVSGDSVISTDWWSWVRQPPGKELEWIGEIHHSGSTNYNPSLEGRVTISVDKSKNQFSLKLTSVTAVDTAVYYCSRGSGGRDAFDVWGQGTMITVSS
VL: QSALTQPPSSSGTPGQKVTISCSGSMSNIGGNYVSWYQQVPGTAPKLLIFKTNQGAAGVPDRFVGSKSGTSASLVISGLRPEDEATYYCASWDDIGDGPTWVFGGGTKLTVL
B5: WM-A1-3106 (antibody, V domains shown)
VH: QVQLVESGGGVVPPGGSVRLSCAASGFTFGDYAMHWVRQAPGKGLEWVSLISGDGGTTYYGDSVKGRYTISRDNSKNSLYLQMNSLRAEDTAVYYCARGGRVYGMDVWGQGTTVTVSS
VL: DIQMTQSPSSLSASVGNRVTITCRASQGISVWLAWFQQKPETAPKSLIYGSSNLQSGVPSRFSGSGSGTDFTLTINNLQPEDFATYYCQQYKASPPTFGGGTKVDIK
B6: WM-A1-2608 (antibody, V domains shown)
VH: QVQLVQSGGGLVQPGGSLRLSCEASGFAFRRYEMNWVRQTPGKGLEWIAYINSGGSVKVYADSVKGRFAISRNDSKNSLYLQMNSLRAEDTAVYYCARAGNAFGTFDYWGQGTLVTVSS
VL: DIQMTQSPSSVSASVGDRVTITCRASQDISRWLAWYQQKPGKAPKRLMYAASVLDVGVPSRFSGSGSGTDFTLTISNLQPEDFATYYCQQPISFPLTFGGGTKVDIK
B7: WM-A1-3102 (antibody, V domains shown)
VH: QMQLVQSGAEVKKPGSSVKVSCKASGGTFSSYAISWVRQAPGQGLEWMGGIIPVLGATNYAQRFQGRVTMTADESTTTAYMELSGLRSEDTAVYYCARGRSWGFDYWGHGTLITVSS
VL: DIVMTQTPLSLPVTPGQPASISCKSSQSLLHSDGNTYLDWYLQKPGQSPQLLIYTLSHRASGVPDRFSGSGSGTDFTLKISRVEADDVGLYYCMQRIEFPYTFGQGTKVEIK

What follows are binders tested against IGSF1 항원 (IGSF1 카복시 말단 도메인의 세포외 도메인 - 인간 Fc - his tag 융합 단백질) (human) (UniProt Q8N6C5) (assay: ELISA; human IGSF1 antigen diluted 1/3 from 100 nM to 0.046 nM; fit in GraphPad Prism 6).

Row | Kd [nM] | Binder
1 | 27.2 | B1
2 | 300 | B2
3 | 29.5 | B3
4 | 0.1 | B4
5 | 20.8 | B5
6 | 0.097 | B6
7 | 18.8 | B7
